{
  "source": "the DeepSol protein solubility set",
  "data": [
    {"assay": "soluble on expression in E. coli; label from the status in PepcDB or PDB records", "values": [
      {"sequence": "MTYKGYLIDLDGTIYKGKDRIPAGEDFVKRLQERQLPYILVTNNTTRTPEMVQEMLATSFNIKTPLETIYTATLATIDYMNDMKRGKTAYVIGETGLKKAVAEAGYREDSENPAYVVVGLDTNLTYEKLTLATLAIQKGAVFIGTNPDLNIPTERGLLPGAGAILFLLEKATRVKPIIIGKPEAVIMNKALDRLGVKRHEAIMVGDNYLTDITAGIKNDIATLLVTTGFTKPEEVPALPIQPDFVLSSLAEWDFDER", "soluble on expression in E. coli": "soluble"},
      {"sequence": "YATPDNMLSRFGEQDLTLLTEREDSVPGEINLALLEQALSDASAEIDGYIAGRYVLPLTTVPAVLERNCCDIARYFLYGDKAPEQVEKRYAAVVKFLTAVSKGDISLGLATTGETADQSELVISIESAGSVFGRKSAKGF", "soluble on expression in E. coli": "not soluble"},
      {"sequence": "MVSKIIKLGVPTATLAVGTLLLGDDEKRSAFFRTASAFTQNHGHKTFDEHFPRGEWDKNWDFRDPISLVDKGKWEKADEEGKKKLIEEKKATATRNIFLIRHGQYHLDHEVKMLTPLGREQAELLGKRLANSDIKFTNMTMSTMVRATETANIILKHLPDDLTRTSSPFIEEGPPYPPVPDHKTWRPLDPEFYTEAARIESAYRKIFHRASPSQKEDSFELIVCHANVIRYFICRALQFPPEGWLRMSLGNCSLTWITIRPKGHVSVRSIGDIGHLPPNKISFT", "soluble on expression in E. coli": "not soluble"},
      {"sequence": "MCTVSLCVSLCLWMHNETVQVAMALEFKDKWLEQFYEDDKRHRLIPSSIENALFRKLEILDAAQAESDLRIPPGNRFEHLEGNLKGWCSIRVNKQYRLIFQWVDGVALNTYLDPHKY", "soluble on expression in E. coli": "not soluble"},
      {"sequence": "MGSVEIPTKVLTNTSSQLKMPVVGMGSAPDFTCKKDTKDAIIEAIKQGYRHFDTAAAYGSEQALGEALKEAIELGLVTRDDLFVTSKLWVTENHPHLVIPALQKSLKTLQLDYLDLYLIHWPLSSQPGKFSFPIDVADLLPFDVKGVWESMEESLKLGLTKAIGVSNFSVKKLENLLSVATVLPAVNQVEMNLAWQQKKLREFCNAHGIVLTAFSPVRKGASRGPNEVMENDMLKEIADAHGKSVAQISLRWLYEQGVTFVPKSYDKERMNQNLRIFDWSLTKEDHEKIAQIKQNRLIPGPTKPGLNDLYDD", "soluble on expression in E. coli": "soluble"},
      {"sequence": "MIPVFNITSNRGRLLQQISVGDIWGVGRQWANKLISRGIHTAYDLAMTNPHLLKKCFNAVLMRTAMELQGIACGGLEVLEHHHHHH", "soluble on expression in E. coli": "not soluble"},
      {"sequence": "MIEVAEIIAREIRRGKIVEIGVGFYLEVAKRLRESGIDILVVDINEKAINYARKQGIKGVVDDIFNPTLGIYKDAKAIYSIRPAPEMMKPLLDLARKLKIPLYIVPLTGDRTPNGMKLINYKGIPIYKWEP", "soluble on expression in E. coli": "soluble"},
      {"sequence": "MGSDKIHHHHHHMHSLQQLKSQLLSYHAGILGEEYVKKSAVFIPLVEKDDGVHVLFEVRAHTLKQQPGEICFPGGRIDPEDASPEEAAIRETSEELGIPSSVIAPITSLDVLVTPFRGIIYPVIGSIPHKNDYPLNQAEVDHVFTVPIDHFISHPPEQYRINVHFEPGAGFPIERIANQSAYQKSTRQITESFYYYQSYVIWGLTAKILRHVITILKPS", "soluble on expression in E. coli": "not soluble"},
      {"sequence": "MTAPVPTCNMSGNPINLHKLTLIMPLPSPEARQFSLKLQTLIAEKIGKHGNWIPFSRFMELVLYAPQYGYYTGGSHKIGNTGDFITAPTLTSLFAQTLARQLQELLSQTAGNIYEFGAGTGQLAADLLGSISDGISRYYIIEISPELAARQKNLIQARAPEASQKVVHLTALPEAFDGIIIGNEVLDAMPVEIVRKNEGGSFEHVGVCLDNDRFTYSARPLHDLQLSALASLYFPQTDYPYTSELHPQQYAFIRTLASRLEHGCMIFIDYGFDAAQYYHPQRNQGTLIGHYRHHIIHNPFDFIGLADLTAHVNFTDIAQAGTDAGLDLIGYLPQSHFLLNLGITELLAQTGKTDSAAYICEAAAVQKLIDQHEMGELFKVIAFGKNIGIDWAGFRFGDICHKL", "soluble on expression in E. coli": "not soluble"},
      {"sequence": "GMSNKKLIINADDFGYTPAVTQGIIEAHKRGVVTSTTALPTSPYFLEAMESARISAPTLAIGVHLTLTLNQAKPILPREMVPSLVDEAGYFWHQSIFEEKVNLEEVYNEWDAQIISFMKSGRRPDHIDSHHNVHGKNKKLLGVALALARKYQLPLRNASRSIETKDYLELYQDVRTPDEMLYQFYDKAISTETILQLLDMVVCSEGEVFEINCHPAFIDTILQNQSGYCMPRIREVEILTSQEVKEAIEERGILLANYESLAM", "soluble on expression in E. coli": "soluble"},
      {"sequence": "MIKDVHRCFVIACIPGKKPYTLALSDFISATAACFKSGIPLKTLKESLENMKETYFRPLKVEEFELLRTWLTLVYKTLKEVLFPLTENKRGICDTDDSIYDEFVKSIVTAIREGYSMEKIRLEQVVTNTKTQPRTEFESALLSQSTRIVVQTVQIAKEFSSEQ", "soluble on expression in E. coli": "not soluble"},
      {"sequence": "MSTRTEAVKAYLLDLQDRICTALEQEDGNAHFVEDAWTRPAGGGGRTRVVENGAVIEKGGVNFSHVFGSNLPPSASAHRPELAGRGFEALGVSLVIHPHSPHVPTSHANVRFFIAEKEGEEPVWWFGGGFDLTPYYGVEEDCVHWHRVAERACAPFGDDVYPRYKAWCDSYFHLKHRDEPRGIGGLFFDDVNQWDFDTSFAFIRAIGDAFINAYLPIVRRRKAAAYTVQQREFQEFRRGRYVEFNLVYDRGTLFGLQSGGRTESILMSLPPQVRWGYDWKAAPGSEEARLTDYFLTDRDWLADNAAALEHHHHHH", "soluble on expression in E. coli": "not soluble"},
      {"sequence": "MINFHPNVKRAISQAAQKYGLPESFLERVAMIESKGNPNARNSKSSAGGLYQFLDSTAKQYQLNNKFDPFQATDAMARLTKDNTRYLATALGREPSQAELYLAHQQGPAGAVKLIKNPNVPASQLLGRQAVVLNGGNVEATAGDFMNHIYGLYNKTGEASNGRARQSWGNGQSAANEVVPLRGVERFQKAIQGAQARKPLMAYDTPLHENTRFQGQGIDAGALKKSVMSLVDLMRRNKDAQNQQIEMAHQQMMQQPMMTGFSQSSAHPVDLTLLIDPSRRNPVRSYGQQKKQQLQEELLRRTGAYHV", "soluble on expression in E. coli": "not soluble"},
      {"sequence": "EDLDCTPGFQQKVFHINQPAEFIEDQSILNLTFSDCKGNDKLRYEVSSPYFKVNSDGGLVALRNITAVGKTLFVHARTPHAEDMAELVIVGGKDIQGSLQDIFKFARTSPVPRQKRSIVVSPILIPENQRQPFPRDVGKVVDSDRPERSKFRLTGKGVDQEPKGIFRINENTGSVSMTRTLDREVIAVYQLFVETTDVNGKTLEGPVPLEVIVIDQNDNRPIFREGPYIGHVMEGSPTGTTVMRMTAFDADDPATDNALLRYNIRRQTPDKPSPNMFYIDPEKGDIVTVVSPALLDRETLENPKYELIIEAQDMAGLDVGLTGTATATIMIDDKNDHSPKFTKKEFQATVEEGAVGVIVNLTVEDKDDPATGAWRAAYTIINGNPGQSFEIHTNPQTNEGMLSVVKPLDYEISAFHTLLIKVENEDPLVPDVSYGPSSTATVHITVLDVNEGPVFYPDPMMVTRQEDLSVGSVLLTVNATDPDSLQHQTIRYSVYKDPAGWLNINPINGTVDTTAVLDRESTFVDNSVYTALFLAIDSGNPPATGTGTLLITLEDVNDNAPFIYPTVAEVCDDAKNLSVVILGASDKDLHPNTDPFKFEIHKQAVPDKVWKISKINNTHALVSLLQNLNKANYNLPIMVTDSGKPPMTNITDLRVQVCSCRNSKVDCNAAGALRFSLPSVLLLSLFSLACL", "soluble on expression in E. coli": "soluble"},
      {"sequence": "AHHHHHHGSKAPICEVCLKTEDILCPADEKKLEEGIITELDVKISRMLYKLLGDADVEFKKAVEAGDLIVLIVGEGDVPIVIGKGGKNIKYLTRELGKRVRVIESTDDVKKLAVDLLYPAGVFGVNVVYKPDGGQYYKVLVFSRDKSKLPEKSEVLESILTQITGVETKISFI", "soluble on expression in E. coli": "soluble"},
      {"sequence": "MLTRCQARLLGLTSGEDGGASGSSTSSVPQSPTGVATSGLPRVSGYSIACEASSATSAKPGDPPPFIRRLSLAATSSSSASTAARGCRTNSFFEPSASASKAALHVNSGSGGDGGGGRARLGARPTDAPLSKAQAAIDYWTAASTTAGPSIWFAKDSASPWRALHVSSPKAAVHVTGSFGATLKSADGSSLAGCSARLTAAQLRVRWCGVTRNCSSLHASTRATANGGGAPRASANSVHGVHTAQLSIAACPASTPPRTEFVIEARAGIATSGGDSTGVAQQTDRALAPLNVASRRSLALFTSPFYADVAAPALSASAAALGATEAAALLPVMHQISTQRAAAAALALRQRKEDVRAQRQRRICHEVHNQVYMKAHEVRMRLLFGLSGTDSDAATPAPSGTLAQGHAVAPSAPSKAALGEDHIAADEEAYLQSLNPSKSDEEAKVLRVVASIDAALRRHLASAYKDASQPTFPSESSSADQRVRAADAVADHHHHHHFTDGFAARQPAILEAVIADATRRVESFTGELLPYQQEGVRWLLRLTAVEHMGGILADDMGLGKTAQTVVYLSCYKDMVERVVQGLLEELEQRHARLCQRALGLTVTATGSGALAREAGSVEEGEMPSWLTWCAEATAKGEYISRRTEGRLQRSSSTIQPLMRGVAHGDSIAASAPLAATVEPASTAATPELAAARAWWLHKTCEAGEAMAVAAGGGQGRGRHSCG", "soluble on expression in E. coli": "not soluble"},
      {"sequence": "MGSDKIHHHHHHMKKFIVEPEFWELFPETKIGIVLAKNIDNSMESSAEIKKNLDEANENAEQFLEAAVFSENPVVSVWRKAYQKFKTKKGARSSIENLLKRVDKGKAVGSINPLVDIYNSISLNYGLPAGGEDIDTFAGNLRLTKAVGGEHFLALGDDEADNALPGEICYLDDEGAVCRSWNWRDGQRTMLTEQTKNAFLIIESVDPERGEVLDAATQKLAELSEKYLGGTAQVLLVTKENPEISLD", "soluble on expression in E. coli": "not soluble"},
      {"sequence": "MSGNQMAMGSEQQQTVGSRTVSVEEVPAVLQLRATQDPPRSQEAMPTRHNVRWEENVIDNENMNKKKTKICCIFHPQNEDEEECNHHSDDDGSSSSGSSSSESENEKDLDFNERRQRRLERRHRKLEKKRSYSPNAYEIQPDYSEYRRKQQEKKDMGHHHHHHSH", "soluble on expression in E. coli": "soluble"},
      {"sequence": "MRFNHFSIVDKNFDEQLAELDQLGFRWSVFWDEKKILKDFLIQSPSDMTALQATAELDVIEFLKSSIELDWEIFWNIALQLLDFVPNFDFEIGKAFEYAKNSNLPQIEAEMTTENIISAFYYLLCTRRKTGMILVEHWVSEGLLPLDNHYHFFNDKSLATFDSSLLEREVLWVESPVDSEQRGENDLIKIQIIRPKSTEKLPVVMTASPYHLGINDKANDLALHDMNVELEEKTSHEIHVEQKLPQKLSAKAKELPIVDKAPYRFTHGWTYSLNDYFLTRGFASIYVAGVGTRSSDGFQTSGDYQQIYSMTAVIDWLNGRARAYTSRKKTHEIKASWANGKVAMTGKSYLGTMAYGAATTGVEGLELILAEAGISSWYNYYRENGLVRSPGGFPGEDLDVLAALTYSRNLDGADFLKGNAEYEKRLAEMTAALDRKSGDYNQFWHDRNYLINTDKVKADVLIVHGLQDWNVTPEQAYNFWKALPEGHAKHAFLHRGAHIYMNSWQSIDFSETINAYFVAKLLDRDLNLNLPPVILQENSKDQVWTMMNDFGANTQIKLPLGKTAVSFAQFDNNYDDETFKKYSKDFNVFKKDLFENKANEAVIDLELPSMLTINGPVELELRLKLNDTKGFLSAQILDFGQKKRLEDKVRVKDFKVLDRGRNFMLDDLVELPLVESPYQLVTKGFTNLQNQSLLTVSDLKADEWFTIKFELQPTIYHLEKADKLRVILYSTDFEHTVRDNRKVTYEIDLSQSKLIIPIESVKN", "soluble on expression in E. coli": "soluble"}
    ]}
  ]
}
